Data published in patent US20080138349A1.

Tests used:
[1] = target: FcγRIIB (CD32B), soluble dimeric Fc fusion (human) (UniProt P31994); test: Biacore SPR
[2] = target: FcγRIIIA 158V (CD16A V158), soluble monomer (human) (UniProt P08637); test: Biacore SPR
FcγRIIIA = FcγRIIIA (UniProt P08637); test: ELISA
[3] = target: FcγRIIIA 158V (CD16A V158), soluble monomer (human) (UniProt P08637); test: Biacore SPR; value on CD16A over value on CD32B
[4] = target: FcγRIIIA 158F (CD16A F158), soluble monomer (human) (UniProt P08637); test: Biacore SPR; value on CD16A over value on CD32B
[5] = target: FcγRIIIA 158F (CD16A F158), soluble monomer (human) (UniProt P08637); test: Biacore SPR

Sequence of FcγRIIB (CD32B), soluble dimeric Fc fusion (human) (P31994 43-217): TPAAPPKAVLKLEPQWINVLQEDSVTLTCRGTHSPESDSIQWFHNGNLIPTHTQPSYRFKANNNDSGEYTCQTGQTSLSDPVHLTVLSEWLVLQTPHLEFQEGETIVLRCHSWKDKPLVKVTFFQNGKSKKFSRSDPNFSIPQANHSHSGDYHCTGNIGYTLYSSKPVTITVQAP
Sequence of FcγRIIIA 158F (CD16A F158), soluble monomer (human) (P08637 17-208): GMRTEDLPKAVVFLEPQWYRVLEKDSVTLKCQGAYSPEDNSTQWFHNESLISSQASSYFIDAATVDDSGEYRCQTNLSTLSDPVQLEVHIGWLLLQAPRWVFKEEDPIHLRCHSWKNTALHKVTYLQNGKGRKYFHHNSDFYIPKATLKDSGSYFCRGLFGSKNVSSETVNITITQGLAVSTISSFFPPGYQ
Sequence of FcγRIIIA (P08637 17-208 limits assumed): as the sequence (P08637 17-208) above
Sequence of FcγRIIIA 158V (CD16A V158), soluble monomer (human) (P08637 17-208 F176V): as the sequence (P08637 17-208) above, with F160V counted along it

Immunoglobulin with variant Fc region Q419H P396L D270E (antibody)
Koff WT/Koff mutant [1]: 0.68 | Koff WT/Koff mutant [2]: 1.64

ch4-4-20 T335N, K370E, A378V, T394M, S424L (from UniProt P01857 1-330) (antibody)
ELISA binding increase vs wt (FcγRIIIA): 0.5 x

ch4-4-20 V282E, V369I, L406F (from UniProt P01857 1-330) (antibody)
ELISA binding increase vs wt (FcγRIIIA): 0.5 x

ch4-4-20 P291S, K288E, H268L, A141V (from UniProt P01857 1-330) (antibody)
ELISA binding decrease vs wt (FcγRIIIA): 0.5 x

Immunoglobulin with variant Fc region P396L D270E (antibody)
Ratio of Affinities CD16A V158/CD32B [3]: 1.55 | Ratio of Affinities CD16A F158/CD32B [4]: 1.85 | Koff WT/Koff mutant [1]: 0.89 | Koff WT/Koff mutant [2]: 1.38 | Koff WT/Koff mutant [5]: 1.65

ch4-4-20 K320E, K326E (from UniProt P01857 1-330) (antibody)
ELISA binding increase vs wt (FcγRIIIA): 1 x

ch4-4-20 K326E, G385E (from UniProt P01857 1-330) (antibody)
ELISA binding increase vs wt (FcγRIIIA): 0.5 x

Immunoglobulin with variant Fc region R292P F243L (antibody)
Ratio of Affinities CD16A V158/CD32B [3]: 39.4

ch4-4-20 P227S, K290E (from UniProt P01857 1-330) (antibody)
ELISA binding increase vs wt (FcγRIIIA): 1 x

ch4-4-20 D312E, K327N, I378S (from UniProt P01857 1-330) (antibody)
ELISA binding increase vs wt (FcγRIIIA): 0.5 x

Immunoglobulin with variant Fc region R292G (antibody)
Ratio of Affinities CD16A V158/CD32B [3]: 6.2 | Koff WT/Koff mutant [1]: 0.25 | Koff WT/Koff mutant [2]: 1.54

ch4-4-20 K246R, S298N, I377F (from UniProt P01857 1-330) (antibody)
ELISA binding increase vs wt (FcγRIIIA): 1 x

Immunoglobulin with variant Fc region K392T P396L D270E (antibody)
Ratio of Affinities CD16A V158/CD32B [3]: 2.29 | Ratio of Affinities CD16A F158/CD32B [4]: 2.89 | Koff WT/Koff mutant [1]: 0.79 | Koff WT/Koff mutant [2]: 1.81 | Koff WT/Koff mutant [5]: 2.28

ch4-4-20 F275I, K334N, V348M (from UniProt P01857 1-330) (antibody)
ELISA binding increase vs wt (FcγRIIIA): 0.5 x

ch4-4-20 E216D, E345K, S375I (from UniProt P01857 1-330) (antibody)
ELISA binding increase vs wt (FcγRIIIA): 0.5 x

ch4-4-20 N315I, V379M, T394M (from UniProt P01857 1-330) (antibody)
ELISA IIIA binding vs wt (FcγRIIIA): 1 X | ELISA binding increase vs wt (FcγRIIIA): 1 x

ch4-4-20 V279L, P395S (from UniProt P01857 1-330) (antibody)
ELISA binding increase vs wt (FcγRIIIA): 1 x

ch4-4-20 K334I (from UniProt P01857 1-330) (antibody)
ELISA binding increase vs wt (FcγRIIIA): 1 x

Immunoglobulin with variant Fc region K392T P396L (antibody)
Ratio of Affinities CD16A V158/CD32B [3]: 0.63 | Ratio of Affinities CD16A F158/CD32B [4]: 0.77 | Koff WT/Koff mutant [1]: 2.35 | Koff WT/Koff mutant [2]: 1.49 | Koff WT/Koff mutant [5]: 1.81

ch4-4-20 Q347H, A339V (from UniProt P01857 1-330) (antibody)
ELISA binding increase vs wt (FcγRIIIA): 0.5 x

ch4-4-20 D399E, M428L (from UniProt P01857 1-330) (antibody)
ELISA binding decrease vs wt (FcγRIIIA): 0.5 x

Immunoglobulin with variant Fc region R292P V305I (antibody)
Ratio of Affinities CD16A V158/CD32B [3]: 0.6

Immunoglobulin with variant Fc region D270E (antibody)
Ratio of Affinities CD16A V158/CD32B [3]: 3.21 | Ratio of Affinities CD16A F158/CD32B [4]: 3.79 | Koff WT/Koff mutant [1]: 0.39 | Koff WT/Koff mutant [2]: 1.25 | Koff WT/Koff mutant [5]: 1.48

ch4-4-20 S400P (from UniProt P01857 1-330) (antibody)
ELISA binding increase vs wt (FcγRIIIA): 1 x

ch4-4-20 P247L, A431V, S442F (from UniProt P01857 1-330) (antibody)
ELISA binding vs wt (FcγRIIIA): 1 x

ch4-4-20 V282M (from UniProt P01857 1-330) (antibody)
ELISA binding increase vs wt (FcγRIIIA): 1 x

ch4-4-20 P396H (from UniProt P01857 1-330) (antibody)
ELISA binding increase vs wt (FcγRIIIA): 1 x

ch4-4-20 A378V, N390I, V422I (from UniProt P01857 1-330) (antibody)
ELISA binding increase vs wt (FcγRIIIA): 0.5 x

Immunoglobulin with variant Fc region R292P V305I P396L (antibody)
Ratio of Affinities CD16A V158/CD32B [3]: 2.01 | Ratio of Affinities CD16A F158/CD32B [4]: 2.07 | Koff WT/Koff mutant [1]: 0.92 | Koff WT/Koff mutant [2]: 1.85 | Koff WT/Koff mutant [5]: 1.9

Immunoglobulin with variant Fc region G316D R416G D270E P396L (antibody)
Ratio of Affinities CD16A V158/CD32B [3]: 1.14 | Ratio of Affinities CD16A F158/CD32B [4]: 0.88 | Koff WT/Koff mutant [1]: 1.07 | Koff WT/Koff mutant [2]: 1.22 | Koff WT/Koff mutant [5]: 0.94

ch4-4-20 F275Y (from UniProt P01857 1-330) (antibody)
ELISA binding increase vs wt (FcγRIIIA): 3 x

ch4-4-20 S415I, L251F (from UniProt P01857 1-330) (antibody)
ELISA binding increase vs wt (FcγRIIIA): 0.5 x

Immunoglobulin with variant Fc region R292P V284M K370N (antibody)
Ratio of Affinities CD16A V158/CD32B [3]: 3.1 | Ratio of Affinities CD16A F158/CD32B [4]: 3.7 | Koff WT/Koff mutant [1]: 0.37 | Koff WT/Koff mutant [2]: 1.14 | Koff WT/Koff mutant [5]: 1.37

Immunoglobulin with variant Fc region P247L N421K (antibody)
Koff WT/Koff mutant [2]: 1.29 | Koff WT/Koff mutant [5]: 1.73

ch4-4-20 S408I, V215I, V125L (from UniProt P01857 1-330) (antibody)
ELISA binding increase vs wt (FcγRIIIA): 0.5 x

ch4-4-20 P247L (from UniProt P01857 1-330) (antibody)
ELISA binding increase vs wt (FcγRIIIA): 0.5 x

ch4-4-20 S383N, N384K, T256N, V262L, K218E, R214I, K205E, F149Y, K133M (from UniProt P01857 1-330) (antibody)
ELISA binding increase vs wt (FcγRIIIA): 0.5 x

ch4-4-20 K334E, T359N, T366S, Q386R (from UniProt P01857 1-330) (antibody)
ELISA binding increase vs wt (FcγRIIIA): 1 x

ch4-4-20 K326I, P396L (from UniProt P01857 1-330) (antibody)
ELISA binding increase vs wt (FcγRIIIA): 2.9 x

ch4-4-20 G385E, P247H (from UniProt P01857 1-330) (antibody)
ELISA binding increase vs wt (FcγRIIIA): 1 x

ch4-4-20 K246T, Y319F (from UniProt P01857 1-330) (antibody)
ELISA binding increase vs wt (FcγRIIIA): 1 x

ch4-4-20 P291S, P353Q (from UniProt P01857 1-330) (antibody)
ELISA binding decrease vs wt (FcγRIIIA): 0.5 x

ch4-4-20 F243L, R255L, E318K (from UniProt P01857 1-330) (antibody)
ELISA binding increase vs wt (FcγRIIIA): 1 x

ch4-4-20 K222N, T335N, K370E, A378V, T394M (from UniProt P01857 1-330) (antibody)
ELISA binding increase vs wt (FcγRIIIA): 1 x

ch4-4-20 K370N, S440N (from UniProt P01857 1-330) (antibody)
ELISA binding increase vs wt (FcγRIIIA): 1 x

ch4-4-20 S407I (from UniProt P01857 1-330) (antibody)
ELISA binding increase vs wt (FcγRIIIA): 0.5 x

ch4-4-20 V284A, F372L (from UniProt P01857 1-330) (antibody)
ELISA binding vs wt (FcγRIIIA): 1 x

ch4-4-20 H224L (from UniProt P01857 1-330) (antibody)
ELISA binding increase vs wt (FcγRIIIA): 0.5 x

ch4-4-20 P247L, I253N, K334N (from UniProt P01857 1-330) (antibody)
ELISA binding increase vs wt (FcγRIIIA): 3 x

ch4-4-20 P343S, P353L, S375I, S383N (from UniProt P01857 1-330) (antibody)
ELISA binding increase vs wt (FcγRIIIA): 0.5 x

ch4-4-20 P247L, I377F (from UniProt P01857 1-330) (antibody)
ELISA binding increase vs wt (FcγRIIIA): 1 x

ch4-4-20 K222N (from UniProt P01857 1-330) (antibody)
ELISA binding increase vs wt (FcγRIIIA): 1 x

ch4-4-20 D280E, S354F, A431D, L441I (from UniProt P01857 1-330) (antibody)
ELISA binding increase vs wt (FcγRIIIA): 3 x

ch4-4-20 K246T, P396H (from UniProt P01857 1-330) (antibody)
ELISA binding increase vs wt (FcγRIIIA): 1 x

ch4-4-20 R301H, K340E, D399E (from UniProt P01857 1-330) (antibody)
ELISA binding decrease vs wt (FcγRIIIA): 0.5 x

ch4-4-20 T394M, V397M (from UniProt P01857 1-330) (antibody)
ELISA binding increase vs wt (FcγRIIIA): 0.5 x

ch4-4-20 K334N (from UniProt P01857 1-330) (antibody)
ELISA binding increase vs wt (FcγRIIIA): 0.5 x

ch4-4-20 H310Y, T289A, G337E (from UniProt P01857 1-330) (antibody)
ELISA binding increase vs wt (FcγRIIIA): 0.5 x

ch4-4-20 R301C, M252L, S192T (from UniProt P01857 1-330) (antibody)
ELISA binding decrease vs wt (FcγRIIIA): 0.5 x

ch4-4-20 I377N (from UniProt P01857 1-330) (antibody)
ELISA binding decrease vs wt (FcγRIIIA): 0.5 x

ch4-4-20 D401V (from UniProt P01857 1-330) (antibody)
ELISA binding increase vs wt (FcγRIIIA): 0.5 x

Immunoglobulin with variant Fc region R292P V305I F243L P396L Y300L (antibody)
Koff WT/Koff mutant [1]: 1.38 | Koff WT/Koff mutant [2]: 10.1 | Koff WT/Koff mutant [5]: 8.25

ch4-4-20 S219Y (from UniProt P01857 1-330) (antibody)
ELISA binding increase vs wt (FcγRIIIA): 1 x

ch4-4-20 K288N, K326N (from UniProt P01857 1-330) (antibody)
ELISA binding increase vs wt (FcγRIIIA): 1 x

ch4-4-20 S298N, S407R (from UniProt P01857 1-330) (antibody)
ELISA binding increase vs wt (FcγRIIIA): 0.5 x
